Measurements: article PMC11388181

How the values were obtained:
[1] = Confocal immunofluorescence, HEK293; details: glycan lost; control: wild type
[2] = Western blot, B7-H5/GAPDH, HEK293 lysates; details: glycan lost; control: wild type

Row | Substance | localisation_or_trafficking [1] | expression_or_secretion [2]
1 | B7-H5/VISTA: N91A | no change | no change
2 | B7-H5/VISTA: N49A | no change | no change
3 | B7-H5/VISTA: N108A | no change | no change
4 | B7-H5/VISTA: N135A | no change | no change
5 | B7-H5/VISTA: N128A | no change | no change
